Experimental data published in PMC4357705, “Human Rap1 modulates TRF2 attraction to telomeric DNA”.
Values belong to the molecule of their own block, whether it stands above or below them.

Experiments:
[1] = target: Rap1, full-length, N-terminal His6-tag, labelled with Alexa Fluor 594 (human) (UniProt Q9NYB0); assay: fluorescence polarisation; fluorescence anisotropy; TRF2 titrated into 100 nM Rap1 labelled with Alexa Fluor 594; PBST (Phosphate Buffered Saline with Tween 20, ~140 mM NaCl); concentration as TRF2 dimer
[2] = target: Rap1, full-length, N-terminal His6-tag, labelled with Alexa Fluor 594 (human) (UniProt Q9NYB0); assay: fluorescence polarisation; fluorescence anisotropy; TRF2 titrated into 100 nM Rap1 labelled with Alexa Fluor 594; 50 mM NaCl, 50 mM sodium phosphate pH 7.0 with 1 mM DTT; concentration as TRF2 dimer
[3] = target: Rap1 without His-tag, labelled with Alexa Fluor 488 (human) (UniProt Q9NYB0); assay: fluorescence polarisation; fluorescence anisotropy; TRF2noHis titrated into 100 nM Rap1noHis labelled with Alexa Fluor 488; 50 mM NaCl, 50 mM sodium phosphate pH 7.0, 25 C; concentration as TRF2 dimer
Rap1 [4] = target: T1, Rap1 (human, UniProt Q9NYB0 1-399); assay: SPR; PBST; FA: 50 mM NaCl, 50 mM sodium phosphate pH 7.0, 25 °C, 7.5 nM DNA; EMSA: same buffer, 15 min on ice, 5% (or 4%) PAGE in 0.25x TBE at 4 °C; SPR: PBST; settings: protein: recombinant; tags: N-terminal His6; label: 5' biotin on S6; blunt
T1 sequence: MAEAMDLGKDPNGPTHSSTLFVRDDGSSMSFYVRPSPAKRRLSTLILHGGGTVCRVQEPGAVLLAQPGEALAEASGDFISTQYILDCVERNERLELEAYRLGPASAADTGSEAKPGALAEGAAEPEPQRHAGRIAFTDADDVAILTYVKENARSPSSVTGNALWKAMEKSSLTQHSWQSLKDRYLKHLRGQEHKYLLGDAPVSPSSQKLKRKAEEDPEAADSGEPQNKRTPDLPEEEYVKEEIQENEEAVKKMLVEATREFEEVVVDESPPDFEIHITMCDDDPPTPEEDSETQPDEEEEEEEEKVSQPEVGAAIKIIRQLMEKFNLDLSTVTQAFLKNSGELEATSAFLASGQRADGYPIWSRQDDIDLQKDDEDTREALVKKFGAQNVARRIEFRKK

Rap1 [5] = target: T1, Rap1; assay: EMSA; up to Rap1:DNA 40:1; FA: 50 mM NaCl, 50 mM sodium phosphate pH 7.0, 25 °C, 7.5 nM DNA; EMSA: same buffer, 15 min on ice, 5% (or 4%) PAGE in 0.25x TBE at 4 °C; SPR: PBST; settings: protein: recombinant; tags: N-terminal His6; label: Alexa Fluor 488 at 3' end of one strand; blunt
Rap1 [6] = target: T1, Rap1; assay: fluorescence anisotropy; FA: 50 mM NaCl, 50 mM sodium phosphate pH 7.0, 25 °C, 7.5 nM DNA; EMSA: same buffer, 15 min on ice, 5% (or 4%) PAGE in 0.25x TBE at 4 °C; SPR: PBST; settings: protein: recombinant; tags: N-terminal His6; label: Alexa Fluor 488 (FA); 5' biotin on S6 in SPR; 3' overhang 6 nt
[7] = target: Telomeric Repeat binding Factor 2 (TRF2), full-length, N-terminal His6-tag (human); assay: SPR; TRF2 immobilised by amine coupling on ProteOn GLC chip; Rap1 as analyte (methods: 80-5 nM; key of Figure S4A: 160-10 nM); PBST; 240 s injection at 100 ul/min, 1200 s dissociation; equilibrium responses fitted with a simple bimolecular equilibrium model

Kd [1]: 64 nM
Kd [2]: 44 nM
Molecule: Telomeric Repeat binding Factor 2 (TRF2), full-length, N-terminal His6-tag (natural protein)

Kd [3]: 49 nM
Molecule: TRF2 without His-tag (natural protein)

B1: SR2 (dsDNA)
DNA 1: CTAACTTAGGGTTAGGGTTAG
DNA 2: CTAACCCTAACCCTAAGTTAG
binding result (Rap1 [4]): no binding

B2: R2 (dsDNA)
DNA 1: GTTAGGGTTAGGGTTAG
DNA 2: CTAACCCTAACCCTAAC
modifications: 3'-C6 aminoalkyl linker on one strand
binding result (Rap1 [5]): no binding

B3: R5 (dsDNA)
DNA 1: GTTAGGGTTAGGGTTAGGGTTAGGGTTAGGGTTAG
DNA 2: CTAACCCTAACCCTAACCCTAACCCTAACCCTAAC
modifications: 3'-C6 aminoalkyl linker on one strand
binding result (Rap1 [5]): no binding

B4: Overhang_SR2 (mixed)
DNA 1: CTAACTTAGGGTTAGGGTTAGGGTTAG
DNA 2: CTAACCCTAACCCTAAGTTAG
binding result (Rap1 [6]): no binding

Kd [7]: 44 nM
B5: Repressor activator protein 1 (Rap1), full-length, N-terminal His6-tag (natural protein)
chain: T1 sequence
